Source: paper PMC8563363

Columns and labels:
[1] = target: trimeric cohesin (SMC1, SMC3-FLAG, SCC1(TEV)-Halo-His14) (human) (UniProt Q14683); assay: high-speed atomic force microscopy
NIPBL (human) = NIPBL (human) (UniProt Q6KC79); assay: high-speed atomic force microscopy

| Substance | stoichiometry N [1] | stoichiometry N (NIPBL (human)) |
| --- | --- | --- |
| NIPBL (from UniProt Q6KC79 1-2804) (natural protein) | 1 | – |
| NIPBL, Q6KC79 1-2804 | – | 2 |
